Source: patent publication US20230416394A1 (ELPISCIENCE SUZHOU BIOPHARMA, published 2023)

Legend:
KW27-6 = biological target: T1, KW27-6 (human, UniProt P49961 1-510); test: FACS, HEK293F cells expressing mutant-EGFP
T1 construct: on transfected HEK-293F cells; also called human CD39 mutant KW27-6; not shown: C-terminal EGFP (vector pCMV3-GFPSpark) and any linker to it
T1 sequence: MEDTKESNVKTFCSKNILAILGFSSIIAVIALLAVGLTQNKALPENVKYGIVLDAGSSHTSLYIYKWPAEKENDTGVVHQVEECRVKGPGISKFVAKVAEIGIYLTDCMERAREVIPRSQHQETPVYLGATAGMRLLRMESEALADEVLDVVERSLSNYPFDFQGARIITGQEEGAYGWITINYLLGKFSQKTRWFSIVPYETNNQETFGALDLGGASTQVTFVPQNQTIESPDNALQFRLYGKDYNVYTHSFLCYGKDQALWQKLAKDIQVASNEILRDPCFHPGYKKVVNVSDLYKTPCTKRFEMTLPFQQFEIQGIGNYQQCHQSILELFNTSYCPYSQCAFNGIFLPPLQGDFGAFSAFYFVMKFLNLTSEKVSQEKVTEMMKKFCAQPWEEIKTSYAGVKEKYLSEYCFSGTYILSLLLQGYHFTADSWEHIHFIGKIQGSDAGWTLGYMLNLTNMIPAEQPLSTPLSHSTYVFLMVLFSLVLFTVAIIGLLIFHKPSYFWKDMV
Protocol: Briefly, the human CD39 mutants were generated by gene synthesis and then cloned into an expression vector pCMV3-GFPSpark. The vectors containing the validated mutated sequences were prepared and transfected into HEK293F cells. Three days post transfection, the cells were collected to testing EGFP for transgene expression. A range of dosages of antibodies (start from 100 nM, 3-folds dilution, 11 points) were tested on the 20 generated mutants and stained by AlexFluor647 labelled anti-hIgG by FACS. Antibody binding was descripted as relative binding which is derived from AlexFluor647 intensity divided by GFP intensity.

mouse CD39 = biological target: T2, mouse CD39 (mouse, UniProt P55772 1-510); test: FACS, CHOK1-mCD39 cells
T2 construct: whole, on cells; also called mCD39; CHOK1-mCD39
T2 sequence (looked up): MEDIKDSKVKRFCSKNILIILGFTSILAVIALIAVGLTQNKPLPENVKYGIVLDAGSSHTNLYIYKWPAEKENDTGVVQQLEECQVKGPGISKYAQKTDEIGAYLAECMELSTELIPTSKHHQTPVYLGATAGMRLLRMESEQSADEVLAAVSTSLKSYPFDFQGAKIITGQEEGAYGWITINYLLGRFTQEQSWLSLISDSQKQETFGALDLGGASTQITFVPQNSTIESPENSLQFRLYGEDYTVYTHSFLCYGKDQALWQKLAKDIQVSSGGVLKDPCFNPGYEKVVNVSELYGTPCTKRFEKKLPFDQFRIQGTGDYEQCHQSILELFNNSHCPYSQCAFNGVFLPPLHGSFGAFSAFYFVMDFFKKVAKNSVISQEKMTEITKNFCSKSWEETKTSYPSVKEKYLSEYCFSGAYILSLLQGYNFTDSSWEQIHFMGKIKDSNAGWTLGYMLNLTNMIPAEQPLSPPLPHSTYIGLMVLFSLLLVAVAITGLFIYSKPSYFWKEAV
Description: FACS were used to determine binding of the antibodies to cell lines expressing CD39 naturally (SK-MEL-28) or recombinantly (CHOK1-hCD39, CHOK1-cynoCD39, and CHOK1-mCD39), or with cells lacking CD39 expression (CHOK1-blank) as a negative control.
CHOK1-hCD39, CHOK1-cCD39, CHOK1-mCD39 and CHOK1-blank cells were maintained in culture medium according to ATCC procedure. Cells were collected and re-suspended in blocking buffer at a density of 3×10⁶ cells/ml. […] The plates were washed with FACS buffer, and cells were re-suspended in 100 μL/well of PBS. Cells were then analyzed with FACSVerse™ and mean fluorescence intensity were determined. Full binding curves were generated on the CD39 expressing cells by testing a range of antibody concentrations. Apparent affinity was determined for each antibody using Prism software.

B1: 9-8B (antibody, V domains shown)
VH: QIQLVQSGPELKKPGETVKISCKASGYTFTHYGMNWVKQAPGKGLKWMGWINTYTGELTYADDFKGRFAFSLETSASTAYLQINNLKNEDTATYFCARRAYYRYDYVMDYWGQGTSVTVSS
VL: DIVMTQSQKFMSTSVGDRVSVTCKASHNVGTNVAWYQQKPGQSPKALIYSASYRYSGVPGRFTGSGSGTDFTLTISNVQSEDLAEYFCHQYNNYPYTFGGGTKLEIK
notes: also called Antibody 9-8B
- binding result (KW27-6): no binding (tested: 100 nM)
- binding result (mouse CD39): no binding (tested: 30 µg/ml)
